# Assay results as given in patent US20110091460A1.
# Target: interleukin 13 receptor (IL13R) (human)
# Assay: cell-based or functional assay
substance,measurement,value
DTIL13 (ligand),"IC50, inhibition of Calu-3 cell growth (3H-thymidine proliferation assay, 72 h)",3.1 nM
same,"IC50, inhibition of HT-29 cell growth (3H-thymidine proliferation assay, 72 h)",95 nM
same,"IC50, inhibition of PC-3 cell growth (3H-leucine proliferation assay, 72 h)",0.038 nM
same,"IC50, killing of DU-145 cells (3H-thymidine proliferation assay, 72 h)",> 100 nM
same,"IC50, killing of U87 MG cells (3H-thymidine proliferation assay, 72 h)",10 nM
same,"IC50, killing of U118 cells (3H-thymidine proliferation assay, 72 h)",2 nM
